Holding throughout (assay): cell-based or functional assay
For test [1], the target named is T cell receptor (TCRab) (human).
For test [2], the target named is T1, CD14 (UniProt P08571).
T1 sequence: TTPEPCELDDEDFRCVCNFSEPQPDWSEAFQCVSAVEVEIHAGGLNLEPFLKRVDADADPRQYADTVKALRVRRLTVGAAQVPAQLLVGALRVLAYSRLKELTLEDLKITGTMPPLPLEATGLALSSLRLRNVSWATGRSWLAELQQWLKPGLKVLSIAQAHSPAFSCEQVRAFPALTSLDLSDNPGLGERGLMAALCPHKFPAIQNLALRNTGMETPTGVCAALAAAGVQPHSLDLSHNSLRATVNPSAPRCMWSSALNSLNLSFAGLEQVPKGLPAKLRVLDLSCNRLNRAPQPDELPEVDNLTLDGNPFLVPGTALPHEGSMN

Test [3] addresses human CD8a (human) (UniProt P01732).

4 molecules from patent EP4484563A1 can be followed below.

UniProt P01732, sequence (P01732 22-235): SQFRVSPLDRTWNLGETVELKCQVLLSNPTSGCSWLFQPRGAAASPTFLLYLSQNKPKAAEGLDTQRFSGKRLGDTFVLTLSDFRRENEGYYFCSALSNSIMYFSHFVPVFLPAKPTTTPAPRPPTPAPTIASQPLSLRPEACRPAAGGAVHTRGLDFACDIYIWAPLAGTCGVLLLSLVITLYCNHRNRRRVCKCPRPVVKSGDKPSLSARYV

B1: TCRab VHH (VHH)
VHH: EVQLVESGGGLVQPGGSLRLSCAASGDVHKINILGWYRQAPAKEREMVAHITIGDATDYADSAKGRFTISRDEAKNMVYLQMNSLKPEDTAVYFCRAYSRIYPYNYWGQGTLVTVSS
Take B1: the percentage transduction of target negative cells (flow cytometry, day 7) in test [1] was less than 1%.

B2: Nanobody (VHH) CD14 3RMB1 (VHH)
VHH: QVQLQESGGGLVQSGGSLRLSCAVSGSIFSIVDMGWYRQAPGKGRELVAELSDGSTNYADSVLGRFTISRDNAKNTVYLQMNSLKPEDTAVYYCNADLTGSSWSPYRYLEVWGQGTQVTVSS
B2 gave a percentage transduction of target negative cells (flow cytometry, 7-14 days) in test [2] of less than 1%.

B3: membrane anchored anti-CD14 scFv (scFv)
scFv: DDVQLQQSGPGLVKPSQSLSLTCTVTGYSITSDSAWNWIRQFPGNRLEWMGYISYSGSTSYNPSLKSRISITRDTSKNQFFLQLNSVTTEDTATYYCVRGLRFAYWGQGTLVTVSSGGGGSGGGGSGGGGSDIVLTQSPASLAVSLGQRATISCRASESVDSYVNSFLHWYQQKPGQPPKLLIYRASNLQSGIPARFSGSGSRTDFTLTINPVEADDVATYYCQQSNEDPYTFGGGTKLEIK
In turn, B3 returned a percentage transduction of primary monocytes versus non-stimulated PBMCs (GFP, flow cytometry, day 7) in test [2] of less than 2%.

B4: membrane anchored VHH targeting human CD8a (VHH)
VHH: EVQLVESGGGLVQPGGSLRLSCAASGFTFDDYVIGWFRQAPGKGREGVACIRIFDRHTYYADSVKGRFTISSDNSKNTVYLQMNSLRAEDTATYYCAAGSFFGCTRPEGDMDYFGQGTLVQVQS
With B4, the percentage transduction of target negative cells (flow cytometry, day 7) in test [3] was less than 1%.
